Laboratory results as given in patent US20150037339A1 (Regeneron, published 2015).

What was measured:
[1] = target: T1, Activin AB (human, UniProt P08476 311-426; P09529 293-407); assay: cell-based or functional assay
T1 chain 1: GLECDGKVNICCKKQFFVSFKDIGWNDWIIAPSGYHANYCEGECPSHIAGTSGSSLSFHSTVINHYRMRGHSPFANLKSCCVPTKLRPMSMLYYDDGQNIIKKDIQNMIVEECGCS
T1 chain 2: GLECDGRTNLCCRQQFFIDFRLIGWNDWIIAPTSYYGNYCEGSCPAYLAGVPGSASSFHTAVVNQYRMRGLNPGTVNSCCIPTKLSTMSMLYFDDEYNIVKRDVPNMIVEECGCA

[2] = target: T2, Activin A (human, UniProt P08476 311-426); assay: cell-based or functional assay
T2 sequence: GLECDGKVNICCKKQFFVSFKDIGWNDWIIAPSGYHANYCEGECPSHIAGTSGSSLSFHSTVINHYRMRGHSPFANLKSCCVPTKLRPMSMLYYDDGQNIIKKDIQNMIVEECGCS

[3] = target: T3, Activin AC (human, UniProt P55103 237-352); assay: cell-based or functional assay
T3 sequence 1: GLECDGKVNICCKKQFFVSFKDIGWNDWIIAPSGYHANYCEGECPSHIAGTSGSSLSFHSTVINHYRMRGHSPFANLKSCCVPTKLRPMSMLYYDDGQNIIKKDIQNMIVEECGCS
T3 sequence 2: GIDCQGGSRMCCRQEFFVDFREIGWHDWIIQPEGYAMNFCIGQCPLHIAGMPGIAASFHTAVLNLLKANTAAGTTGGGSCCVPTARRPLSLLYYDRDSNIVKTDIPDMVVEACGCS

[4] = target: T1, Activin AB; assay: SPR (Biacore), mAb captured on anti-Fc, Activin AB injected, 25 C
Procedure, shortened: (§1)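 240 s association, 600 s buffer dissociation; ka, kd fitted; KD (M) = kd/ka; t1/2 (min) = ln2/(60*kd).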

[5] = target: T1, Activin AB; assay: SPR (Biacore), mAb captured on anti-Fc, Activin AB injected, 37 C
Procedure, shortened: as §1

[6] = target: T3, Activin AC; assay: SPR (Biacore), mAb captured on anti-Fc, Activin AC injected, 25 C
Procedure, shortened: as §1

[7] = target: T4, hBMP9 (human, UniProt Q9UK05 320-429); assay: SPR (Biacore 4000), captured on anti-human Fc, 200 nM ligand injected, 37 C
T4 construct: Bought protein
T4 sequence (looked up): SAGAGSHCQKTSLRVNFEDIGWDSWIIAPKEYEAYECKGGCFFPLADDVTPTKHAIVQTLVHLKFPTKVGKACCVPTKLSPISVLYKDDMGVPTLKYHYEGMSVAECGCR
Experimental: (§2) For the binding experiment, a Biacore 4000 instrument was used. […] All Biacore binding studies were performed in HBS-T running buffer (0.01 M HEPES pH 7.4, 0.5 M NaCl, 3 mM EDTA, 0.5 mg/ml bovine serum albumin, 0.05% v/v Surfactant P20). […] All binding measurements were performed at 37° C. […] Over the captured antibody surface was injected the TGF-beta family ligands through concentrations ranging from 3.1 nM to 200 nM.

[8] = target: T5, GDF8 (human, UniProt O14793 267-375); assay: as above
T5 construct: Bought (R&D Systems #788-G8); also called hGDF8; growth and differentiation factor-8
Experimental: as §2

[9] = target: T1, Activin AB; assay: as above
Experimental: as §2

[10] = target: T6, hBMP4 (human, UniProt P12644 293-408); assay: as above
T6 construct: Bought protein
T6 sequence (looked up): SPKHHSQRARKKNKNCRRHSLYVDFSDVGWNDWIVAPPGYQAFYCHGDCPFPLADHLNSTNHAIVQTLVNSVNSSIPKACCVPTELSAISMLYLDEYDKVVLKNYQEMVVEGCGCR
Experimental: as §2

[11] = target: T7, hBMP6 (human, UniProt P22004 382-513, limits assumed); assay: as above
T7 construct: Bought protein
T7 sequence (looked up): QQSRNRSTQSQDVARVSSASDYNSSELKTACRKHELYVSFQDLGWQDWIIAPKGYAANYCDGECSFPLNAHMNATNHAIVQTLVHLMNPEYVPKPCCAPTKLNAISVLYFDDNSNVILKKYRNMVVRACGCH
Experimental: as §2

[12] = target: T8, GDF11 (human, UniProt O95390 299-407); assay: as above
T8 construct: Bought protein; also called hGDF11
T8 sequence (O95390 299-407 limits assumed): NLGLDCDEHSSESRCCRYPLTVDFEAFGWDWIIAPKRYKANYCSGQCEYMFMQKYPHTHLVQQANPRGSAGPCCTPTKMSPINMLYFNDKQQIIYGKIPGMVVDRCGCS
Experimental: as §2

[13] = target: T9, hBMP10 (human, UniProt O95393 317-424); assay: as above
T9 construct: Bought protein
T9 sequence (looked up): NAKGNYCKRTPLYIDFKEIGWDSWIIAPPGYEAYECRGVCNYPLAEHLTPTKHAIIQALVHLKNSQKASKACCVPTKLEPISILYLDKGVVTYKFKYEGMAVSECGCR
Experimental: as §2

[14] = target: T10, Activin B (human, UniProt P09529 293-407); assay: as above
T10 construct: Homodimer of two betaB subunits; bought (R&D Systems #659-AB)
T10 chain: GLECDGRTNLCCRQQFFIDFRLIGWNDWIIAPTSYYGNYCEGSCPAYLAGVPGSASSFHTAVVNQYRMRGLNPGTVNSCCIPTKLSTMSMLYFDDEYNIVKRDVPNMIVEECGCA
Experimental: as §2

[15] = target: T11, hBMP7 (human, UniProt P18075 293-431); assay: as above
T11 construct: Bought protein
T11 sequence (looked up): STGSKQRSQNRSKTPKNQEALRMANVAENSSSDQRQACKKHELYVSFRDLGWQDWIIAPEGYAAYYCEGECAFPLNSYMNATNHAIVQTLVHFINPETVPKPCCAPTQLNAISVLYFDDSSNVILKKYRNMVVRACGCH
Experimental: as §2

[16] = target: T2, Activin A; assay: as above
Experimental: as §2

[17] = target: T12, hBMP2 (human, UniProt P12643 283-396); assay: as above
T12 construct: Bought protein; also called BPM2
T12 sequence (P12643 283-396 limits assumed): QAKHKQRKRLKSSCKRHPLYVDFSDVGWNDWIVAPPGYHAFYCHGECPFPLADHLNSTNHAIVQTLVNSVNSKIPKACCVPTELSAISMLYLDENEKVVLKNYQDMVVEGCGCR
Experimental: as §2

[18] = target: T3, Activin AC; assay: as above
Experimental: as §2

[19] = target: T3, Activin AC; assay: SPR (Biacore), mAb captured on anti-Fc, Activin AC injected, 37 C
Procedure, shortened: as §1

B1: H4H10446P2 (antibody, human IgG4, V domains shown)
VH: QVQLQESGPGLVKPSETLSLTCTVSGGSFSSHFWSWIRQPPGKGLEWIGYILYTGGTSFNPSLKSRVSMSVGTSKNQFSLKLSSVTAADTAVYYCARARSGITFTGIIVPGSFDIWGQGTMVTVSS
VL: not shown
B1 was tested, and the “IC50 [M], inhibition of 30 pM Activin AB in A204/CAGAx12-Luc Smad2/3-luciferase bioassay” value [1] was 8.2e-09 M, the “IC50 [M], inhibition of 100 pM Activin A in A204/CAGAx12-Luc Smad2/3-luciferase bioassay” value [2] was 4.7e-11 M and the “IC50 [M], inhibition of 4 nM Activin AC in A204/CAGAx12-Luc Smad2/3-luciferase bioassay” value [3] was 5.6e-09 M. The “50 nM Ag Bound (RU)” value [4] was 31.9 RU, the Kd [4] was 0.815 nM and the koff [4] was 0.00406 s⁻¹. For the same binder, the kon [4] was 4.99e+06 M⁻¹ s⁻¹, the t1/2 [4] was 2.8 min and the “50 nM Ag Bound (RU)” value [5] was 41.5 RU. It also gave a Kd [5] of 1.34 nM, a koff [5] of 0.00817 s⁻¹ and a kon [5] of 6.08e+06 M⁻¹ s⁻¹. For the same binder, the t1/2 [5] was 1.4 min, the “50 nM Ag Bound (RU)” value [6] was 12.6 RU and the Kd [6] was 11.8 nM. It also gave a koff [6] of 0.0122 s⁻¹, a kon [6] of 1.04e+06 M⁻¹ s⁻¹ and a t1/2 [6] of 0.9 min. For the same binder, the “binding response (resonance units) for 200 nM ligand” value (from here on “binding response (resonance units)”) [7] was -0.3 RU, the “binding response (resonance units)” value [8] was 0.7 RU and the “binding response (resonance units)” value [9] was 66.7 RU. The “binding response (resonance units)” value [10] was 0.8 RU, the “binding response (resonance units)” value [11] was 5.3 RU and the “binding response (resonance units)” value [12] was 1.8 RU. For the same binder, the “binding response (resonance units)” value [13] was 0.5 RU, the “binding response (resonance units)” value [14] was 2.6 RU and the “binding response (resonance units)” value [15] was 5.7 RU. For the same binder, the “binding response (resonance units)” value [16] was 53.2 RU, the “binding response (resonance units)” value [17] was 3.3 RU and the “binding response (resonance units)” value [18] was 15.2 RU. For the same binder, the “50 nM Ag Bound (RU)” value [19] was 14.4 RU, the Kd [19] was 22.5 nM and the koff [19] was 0.0216 s⁻¹. The kon [19] was 959000 M⁻¹ s⁻¹ and the t1/2 [19] was 0.5 min.
